Test results as given in patent US20060234940A1.
pKi: −log10 of the molar value.

Target: recombinant human DP IV, wild type (human) (UniProt P27487)
Assay: photometric assay, competition with the standard substrate GP-4NA

Sequence of recombinant human DP IV, wild type (human) (P27487 other isoform, or with tags, fused parts or gaps): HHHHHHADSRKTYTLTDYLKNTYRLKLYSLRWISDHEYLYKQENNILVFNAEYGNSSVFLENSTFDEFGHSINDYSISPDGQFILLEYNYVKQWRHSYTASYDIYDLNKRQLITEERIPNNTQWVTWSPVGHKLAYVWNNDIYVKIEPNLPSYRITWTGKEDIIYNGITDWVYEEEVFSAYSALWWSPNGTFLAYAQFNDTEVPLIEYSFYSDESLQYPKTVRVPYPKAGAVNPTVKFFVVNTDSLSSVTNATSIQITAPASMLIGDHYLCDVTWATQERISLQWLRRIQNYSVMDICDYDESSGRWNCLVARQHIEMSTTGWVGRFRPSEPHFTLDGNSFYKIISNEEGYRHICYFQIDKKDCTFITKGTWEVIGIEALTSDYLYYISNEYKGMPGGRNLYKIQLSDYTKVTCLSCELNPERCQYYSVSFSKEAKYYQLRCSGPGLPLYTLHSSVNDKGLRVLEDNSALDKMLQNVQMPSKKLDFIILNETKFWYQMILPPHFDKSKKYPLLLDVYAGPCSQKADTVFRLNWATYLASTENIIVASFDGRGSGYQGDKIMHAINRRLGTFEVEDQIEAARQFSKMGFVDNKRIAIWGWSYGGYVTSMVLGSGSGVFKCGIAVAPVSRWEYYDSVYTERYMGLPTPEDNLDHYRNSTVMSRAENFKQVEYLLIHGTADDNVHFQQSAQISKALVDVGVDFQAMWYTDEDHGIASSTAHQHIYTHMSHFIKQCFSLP

A pKi of 3.95 was found for “PACAP-27 (from UniProt P18509 132-158) (peptide)” in this work.
